Data: paper PMC7102968, “The complex formed between a synthetic RNA aptamer and the transcription repressor TetR is a structural and functional twin of the operator DNA–TetR regulator complex” (Nucleic Acids Research, 2020)

Molecular target: the molecule itself
Assay: crystal structure; TetR co-crystallised with RNA aptamer K1 (2.7 Å) or K2 (2.9 Å); complex purified by gel filtration in 20 mM Tris-HCl pH 8.0, 150 mM NaCl, 5 mM MgCl2; sitting-drop vapor diffusion at 20°C

B1: TetR type BD' (TetR (B1–B187:D188–D208; C68S, C88N, C121T and C144S)) (natural protein)
chain: MSRLDKSKVINSALELLNEVGIEGLTTRKLAQKLGVEQPTLYWHVKNKRALLDALAIEMLDRHHTHFSPLEGESWQDFLRNNAKSFRNALLSHRDGAKVHLGTRPTEKQYETLENQLAFLTQQGFSLENALYALSAVGHFTLGSVLEDQEHQVAKEERETPTTDSMPPLLRQAIELFDHQGAEPAFLHGLESLIRGFEVQLTALLQIV
notes: TetR class B, residues 1-187 of the cysteine-free chimeric TetR type BD'; TetR class D, residues 188-208 of the chimeric TetR type BD'; homodimer; also called Tet repressor; wild-type TetR; source: purified
**Q.** With B1 as the protein, how does the “stoichiometry N” value read?
**A.** 2
